Measured values reported in the RNAGym collection of RNA variant scans (doi:10.7554/elife.80360).

B1: HDV Ribozyme (parent)
chain: GGCCGGCAUGGUCCCAGCCUCCUCGCUGGCGCCGGCUGGGCAACAUUCCGAGGGGACCGUCCCCUCGGUAAUGGCGAAUGGGACCCA

Variants of: B1
Test: self-cleavage, relative activity (ratio to wild type); higher = more cleavage; co-transcriptional

Variant	self-cleavage
U23A C48U	1.21
G38C C48G	0.133
A16G G55U	0.914
C33A A71U	0.0282
C49G C86A	0.966
C41G A87U	0.788
A45C A77C	0.277
A51U A77C	0.453
G52C G59A	1.02
G11U G74C	0.0845
A43G U60G	0.755
A16G C66A	0.88
A16G C75G	0.222
G28U G76C	0.242
G28A A51C	0
A45C A56U	0.629
C30G U69A	0.148
C63G G73C	0.437
A51U C62U	1.09
C41G A77U	0.185
G35A G73C	0.138
C22U U23G	0.246
G6C C15A	0
A70C	0.894

Variant	self-cleavage
G1U G52C	0.332
U37G C48A	0.277
G35A C36U	0.0817
C21G C86A	0.0665
U37G G50C	0.185
U46C C49U	0.73
G5C A83C	0
A43U G68C	0.198
U9C C49A	0.703
C21U G39A	0.993
A83C C85U	0.268
C4A C48G	0.148
C66A G74U	0.739
U9C A78G	0.914
U65A C66G	0.932
A42G A56C	0.54
U27C G34A	0.289
C32G C62G	0.277
C62U C86A	0.82
G40C G53A	0.332
C26U A87G	1.04
A45C C66A	0.684
G40A A45C	0.671
C44G C62U	0.758

Variant	self-cleavage
C36U C85G	0.799
C4A G54U	0.32
G25C C61U	0.0354
U9A C64G	0.759
A45U G80U	0.153
C24U C66G	0.796
G6C C62G	0.151
A16C G35C	0.175
G67C G82A	0.108
G28A G73C	0.0256
C13U A56U	0.554
G35C U79A	0.122
G5U G34C	0
C13U A83C	0.344
C32G G82A	0.0997
G50U A78G	0.776
C33U A42G	0.427
A42U G50U	0.727
C26G C48G	1.02
G5A U23A	0.342
G1C C58A	0.297
G52U A78C	0.292
G2U U65A	0.02
C44A C48G	0.594

Variant	self-cleavage
G5C C19U	0.0536
C26G U47A	0.87
C32G G40A	0.0831
G17C G59U	0.342
G28A G59C	0.086
C13U U20C	0.0978
C57A G59U	1.11
G6U C36U	0.227
C22G G52C	0.0652
A78C C85U	0.0923
G2U A77U	0.0244
U60G G80C	0.141
C30A G74A	0.123
A8C C57A	0.89
C41U A77G	0.95
C3U U46A	0.628
C15G A45C	0.217
U12A G40C	0.219
G67A A77C	0.325
U46A C61G	0.808
C36A A78C	0.155
G38C U79A	0.151
C3G G17U	0.073
C4G G28A	0

Variant	self-cleavage
G10C G28A	0.0723
C63U U65G	0.96
C13G C57G	0.107
G28C U37G	0
G10A C14U	0.59
C30A G76U	0.554
G5C G10A	0.208
C4G C13U	0.369
C21A G82C	0.104
U12C C62G	0.123
C4A G28U	0.0692
C36A A45C	0
G68U G82A	0.153
G55C C84G	0.712
C32U A70G	0.85
U12A G54A	0.306
G39U G50U	0.627
G53A G59U	0.862
C21G G53U	0.0248
G35A C58G	0.594
C58U A83G	0.681
G50U G81U	0.341
C24A C85U	0.594
G34A A83U	0.0831

Variant	self-cleavage
U27C G82C	0.356
U60A A78U	0.249
A51G G67A	0.831
G11C A87C	0.607
C41A G76U	1.02
C30U U47A	0.532
U65A U69A	0.929
G10A G81C	0.22
C64G G73A	0.594
A56C A78C	0.111
G6A U9G	0.653
C36A U60C	0.166
G29U C32U	0.0665
G29A C75U	0.0339
A51C A83U	0.609
G11A G76A	0.578
C36U A77U	0.224
A16U C48G	1.2
C44G U72G	0.446
U65G G74C	0.309
C4U C19U	0.0665
A8C A45C	0.156
U46C A71C	0.772
C30G G50U	0.0978

Variant	self-cleavage
A16C U69A	0.767
C7U G31C	0.727
G2C C32G	0.0554
U12A G52C	0.453
G25U A51G	0.266
U9G G28A	0.0573
C26A C86A	1.13
G28C A42U	0.166
G50A G53A	0.803
C63A G67C	0.544
A78U A87G	0.226
U46C A78U	0.302
G6C C41U	0
G5A U65G	0
G6C G38U	0.203
G35U G82C	0.161
U46C C84A	0.723
A16U G59C	0.997
C24G G74U	0.0554
G1A G50A	0
A43C G74A	0.509
G50U U79A	0.831
C15A C41U	0.399
